From patent US20030157096A1 come the findings set out here.

The target in assay [1] is zcytor11 and CRF2-4 receptors co-expressed on transfected BaF3 or BHK cells (human) (UniProt Q08334). The experiment in a line: cell-based or functional assay.
Assay [2] has as its target IL-TIF protein (human) (human) (UniProt Q9GZX6). Kind of assay: cell-based or functional assay.

Chain of CRF2-4/zcytor11-Fc soluble receptor heterodimer (Fc fusion) (chain): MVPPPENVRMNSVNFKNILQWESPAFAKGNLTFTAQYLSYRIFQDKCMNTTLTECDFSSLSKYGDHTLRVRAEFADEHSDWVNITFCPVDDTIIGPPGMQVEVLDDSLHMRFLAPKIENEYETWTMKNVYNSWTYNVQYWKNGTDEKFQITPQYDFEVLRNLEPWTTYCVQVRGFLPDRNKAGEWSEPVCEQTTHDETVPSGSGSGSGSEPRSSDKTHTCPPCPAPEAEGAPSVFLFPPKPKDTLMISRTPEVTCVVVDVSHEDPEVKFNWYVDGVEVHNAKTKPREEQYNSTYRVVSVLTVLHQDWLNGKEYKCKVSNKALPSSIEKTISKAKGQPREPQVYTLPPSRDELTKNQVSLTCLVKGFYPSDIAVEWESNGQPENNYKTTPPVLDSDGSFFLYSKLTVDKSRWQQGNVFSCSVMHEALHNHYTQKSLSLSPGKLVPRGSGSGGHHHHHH
Chain of CRF2-4/zcytor11-Fc soluble receptor heterodimer (Fc fusion) (chain): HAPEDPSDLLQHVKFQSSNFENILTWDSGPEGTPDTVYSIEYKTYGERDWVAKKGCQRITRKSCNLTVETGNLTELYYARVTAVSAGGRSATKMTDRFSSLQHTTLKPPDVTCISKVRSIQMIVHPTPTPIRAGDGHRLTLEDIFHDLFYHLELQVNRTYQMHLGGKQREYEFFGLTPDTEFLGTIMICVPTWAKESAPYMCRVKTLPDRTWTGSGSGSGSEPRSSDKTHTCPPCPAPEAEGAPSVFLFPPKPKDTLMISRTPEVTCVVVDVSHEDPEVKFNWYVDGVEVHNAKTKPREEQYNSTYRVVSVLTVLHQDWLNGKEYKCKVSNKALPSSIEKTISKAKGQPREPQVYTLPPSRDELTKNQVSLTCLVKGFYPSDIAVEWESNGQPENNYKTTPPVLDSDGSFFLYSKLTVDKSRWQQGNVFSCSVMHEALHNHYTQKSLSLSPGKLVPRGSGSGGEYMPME
Chain of IL-TIF protein (human) (human) (Q9GZX6 34-179 limits assumed): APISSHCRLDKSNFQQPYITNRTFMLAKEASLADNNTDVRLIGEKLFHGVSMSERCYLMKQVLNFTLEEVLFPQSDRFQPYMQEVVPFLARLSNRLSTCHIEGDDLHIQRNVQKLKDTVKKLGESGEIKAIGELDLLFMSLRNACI
Chain of zcytor11 and CRF2-4 receptors co-expressed on transfected BaF3 or BHK cells (human) (chain, as listed by the source limits assumed, chain 1 of 2): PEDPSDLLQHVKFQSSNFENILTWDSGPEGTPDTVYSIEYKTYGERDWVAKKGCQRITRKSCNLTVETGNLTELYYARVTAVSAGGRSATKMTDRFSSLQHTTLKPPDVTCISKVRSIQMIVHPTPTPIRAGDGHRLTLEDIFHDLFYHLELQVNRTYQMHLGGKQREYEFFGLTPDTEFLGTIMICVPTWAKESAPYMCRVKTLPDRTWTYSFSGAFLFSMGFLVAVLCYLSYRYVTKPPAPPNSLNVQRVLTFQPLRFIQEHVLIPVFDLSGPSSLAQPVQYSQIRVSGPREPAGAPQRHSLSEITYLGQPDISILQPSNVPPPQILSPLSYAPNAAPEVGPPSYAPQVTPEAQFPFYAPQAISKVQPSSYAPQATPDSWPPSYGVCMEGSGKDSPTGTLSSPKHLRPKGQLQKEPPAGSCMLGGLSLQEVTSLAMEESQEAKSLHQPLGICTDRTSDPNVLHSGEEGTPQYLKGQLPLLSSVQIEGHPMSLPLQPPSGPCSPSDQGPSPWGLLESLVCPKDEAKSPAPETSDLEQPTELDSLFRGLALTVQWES
Chain of zcytor11 and CRF2-4 receptors co-expressed on transfected BaF3 or BHK cells (human) (Q08334 20-325 limits assumed, chain 2 of 2): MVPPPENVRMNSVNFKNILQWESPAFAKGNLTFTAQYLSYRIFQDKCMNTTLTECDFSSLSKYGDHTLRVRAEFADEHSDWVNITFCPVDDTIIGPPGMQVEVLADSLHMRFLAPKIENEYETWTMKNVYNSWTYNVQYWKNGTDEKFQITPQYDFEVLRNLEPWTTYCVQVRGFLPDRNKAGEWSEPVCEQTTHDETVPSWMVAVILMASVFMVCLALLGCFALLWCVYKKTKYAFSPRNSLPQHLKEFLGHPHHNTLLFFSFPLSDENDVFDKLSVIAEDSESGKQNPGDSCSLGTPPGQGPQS

In assay [1], “IL-TIF protein (human) (from UniProt Q9GZX6 34-179) (ligand)” displayed an Alamar Blue proliferation of BaF3/CRF2-4/zcytor11 cells, fold over background of 30 fold.

With “CRF2-4/zcytor11-Fc soluble receptor heterodimer (Fc fusion)”, in assay [2], the inhibition of IL-TIF-induced proliferation (Alamar Blue), concentration at which inhibition was barely detectable was found to be 1.6 ng/mL; the inhibition of IL-TIF-induced proliferation (Alamar Blue), concentration giving complete inhibition fell in the range of 25 to 200 ng/mL; the inhibition of IL-TIF-induced proliferation (Alamar Blue), concentration giving partial inhibition is 3.1 to 12.5 ng/mL.
